{"source": "paper PMC11750101", "target": "RBD-HR/trimer (SARS-CoV-2) (UniProt P0DTC2)", "assay": "SEC", "data": [{"substance": "RBD-HR/trimer (from UniProt P0DTC2)", "values": [{"measurement": "stoichiometry N", "value": 3}]}]}
